“Also recorded” adds a separate entry of the source.
How the values were obtained:
[1] = test system: Malme3M^R, SNU38M^R cell strains; experiment: apoptosis against an anticancer drug (FAK and PARP cleavage, Western blot); format: cell-based; settings: melanoma and liver cancer cell strains
[2] = test system: Malme3M^R, SNU38M^R, AGS^R cell strains; experiment: MTT assay of anticancer drug resistance; format: cell-based; settings: celastrol-resistance cell strains
Description: To confirm anticancer activity of a GTGKT-based oligopeptide, the MIT assay and the western blot according to a known method was performed using an immunodeficiency mouse. Then, it could be seen how the GKCKT-based oligopeptide affected tumor generation.
After transfecting a GTGKT peptide into melanoma, liver-cancer, and gastric-cancer cell strains (Malme3M^R, SNU38M^R, AGS^R) by concentration, anticancer drug resistance was inspected through the MTT assay.

[3] = molecular target: T1, CAGE-GSK3β inter-binding (Homo sapiens, UniProt Q86TM3); experiment: Western blot and immunoprecipitation in taxol-resistance melanoma cell strain; format: cell-based; design: endogenous in cells; host or cells: Malme3M^R-Taxol (A2); Malme3M^R, SNU387^R (printed SNU3SM^R/SNU38^R), AGS^R (A3); settings: Malme3M^R-Taxol; for CAGE-GSK3β inter-binding: immunoprecipitation
Description: (§1) To confirm an affection of CAGE-derived oligopeptide to the interbinding and GSK3β Ser9 phosphorylation of a CAGE, a GTGKT (Sequence No.1) peptide and a specific-residue deleted and mutated peptide based on the GTGKT peptide were prepared and, after collecting proteins by a known method after transfection into respective cell stains, the Western blot and the immunoprecipitation were preformed to inspect an anticancer drug-resistance induction mechanism of the CAGE. GTGKT includes ATP binding sites of CAGE (the right panel of FIG. 3A).
To examine residues necessary for anticancer activity of a GTGKT peptide, after preparing a peptide for which the 273′rd Thr residue is deleted (GTGK) or substituted (GTGKA, sequence No. 2) with Ala in CAFE, and preparing a peptide for which the 272′nd […] residue is substituted (GTGRT) with Arg, the same manner was performed.

[4] = test system: tumor from Malme3MR, SNU38R cell strains; experiment: tumor generation in immunodeficiency mouse, peptide injected into tail vein; format: in vivo; settings: 5 times in total every 3 days for 2 weeks
Description: If a tumor grew up to a size enough to be measured, a digital gauge was used to a size of the tumor in a uniform interval and the tumor size was calculated by a known equation (the widest length [the shortest length]^2×0.5). After inducing a tumor in the same manner, taxol was injected into a vein of the mouse's tail for inspection to tumor generation and anticancer drug resistance.
To inspect an affection of GKGKT peptide to tumor generation, after injecting high-CAGE melanoma and liver-cancer cell strains (Malme3MR, SNU38R) into the side abdomen of an immunodeficiency mouse by a known method and then inducing a tumor, the GTGKT peptide was injected into a vein of the mouse's tail 5 times in total every 3 days for 2 weeks and a size variation of the tumor was examined. As a result, it could be seen from FIG. 8A that the GTGKT peptide reduced a size of the tumor due to the cancer cell strains.

[5] = molecular target: T1, CAGE-GSK3β inter-binding; experiment: Western blot and immunoprecipitation of tumor tissue after the mouse experiment; format: in vivo; design: from tissue; host or cells: xenograft tumour tissue from Malme3M^R / SNU387^R cells in immunodeficiency mouse
Description: After finishing the experiment, a protein was collected from the tumor tissue through a known method, and then activity of protein expression and an inter-binding state were conformed through the Western blot and the immunoprecipitation.

[6] = molecular target: T1, CAGE-GSK3β inter-binding; experiment: Western blot and immunoprecipitation in celastrol-resistance cell strains; format: cell-based; design: endogenous in cells; host or cells: Malme3M^R-Taxol (A2); Malme3M^R, SNU387^R (printed SNU3SM^R/SNU38^R), AGS^R (A3); settings: for expression level of Cyclin D1 / inter-binding between CAGE and GSK3β proteins: celastrol-resistance cell strains (melanoma, liver cancer, gastric cancer)
Description: as §1

[7] = molecular target: reassociated CAGE protein (Homo sapiens, UniProt Q86TM3); experiment: in vitro kinase assay: phosphorylation of GSK3β Ser9 peptide by reassociated CAGE protein; format: biochemical; settings: RTTSFAE peptide as substrate
Description: A GSK3β-described peptide RTTSFAE including GSK3β Ser9 residues was prepared for a temperament (the left panel of FIG. 3A) and phosphorylation of the GSK3β Ser9 residues by a reassociated CAGE protein was confirmed through an in vitro kinase assay by using the RTTSFAE peptide as the temperament (the left panel of FIG. 4B).

[8] = molecular target: T2, CAGE (Homo sapiens, UniProt Q86TM3); experiment: binding of peptide to CAGE in anticancer drug-resistance cell strains
T2 construct: endogenous in cells; host or cells: anticancer drug-resistance cell strains (Malme3M^R, SNU387^R)
T2 sequence (Q86TM3 whole entry): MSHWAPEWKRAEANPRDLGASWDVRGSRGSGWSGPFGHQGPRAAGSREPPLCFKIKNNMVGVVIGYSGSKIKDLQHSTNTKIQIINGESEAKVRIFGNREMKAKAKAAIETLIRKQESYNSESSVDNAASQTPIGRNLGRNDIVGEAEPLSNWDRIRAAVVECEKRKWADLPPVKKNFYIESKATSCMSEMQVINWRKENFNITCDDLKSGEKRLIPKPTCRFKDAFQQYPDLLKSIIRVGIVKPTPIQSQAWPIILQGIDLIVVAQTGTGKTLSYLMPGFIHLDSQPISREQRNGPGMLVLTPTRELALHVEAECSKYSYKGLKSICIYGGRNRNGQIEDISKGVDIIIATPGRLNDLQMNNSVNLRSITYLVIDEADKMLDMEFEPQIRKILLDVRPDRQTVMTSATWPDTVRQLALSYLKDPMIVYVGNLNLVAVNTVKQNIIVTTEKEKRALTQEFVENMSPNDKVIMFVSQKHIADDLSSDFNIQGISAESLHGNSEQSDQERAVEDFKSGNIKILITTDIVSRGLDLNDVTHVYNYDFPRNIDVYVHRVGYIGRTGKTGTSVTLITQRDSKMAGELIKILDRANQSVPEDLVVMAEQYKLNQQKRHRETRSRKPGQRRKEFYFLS

T1 sequence (Q86TM3 whole entry): as above
reassociated CAGE protein, sequence (Q86TM3 whole entry): as above

Row | Substance | apoptosis against an anticancer drug [1] | anticancer drug resistance [2] | phosphorylation of GSK3β Ser9 residues ([3]; Western blot) | protein accumulation / expression level of Cyclin D1 ([3]; Western blot) | CAGE-GSK3β inter-binding [3] | size of the tumor [4] | expression of MDR1 in tumor tissue ([5]; Western blot) | phosphorylation state of GSK3β Ser9 in tumor tissue ([5]; Western blot) | protein expression of Cyclin D1 in tumor tissue ([5]; Western blot) | inter-binding between CAGE and GSK3β proteins in tumor tissue ([5]; immunoprecipitation) | phosphorylation state of GSK3β Ser9 ([6]; Malme3M^R, SNU38^R treated with peptide) | expression level of Cyclin D1 [6] | inter-binding between CAGE and GSK3β proteins [6] | phosphorylation of GSK3β Ser9 residues due to the reassociated CAGE protein [7] | phosphorylation of GSK3β Ser9 residues due to the reassociated CAGE protein ([7]; listed as GTCKT) | binding to CAGE [8]
1 | GTGKT (CAGE-derived peptide) | induced apoptosis | suppressed | suppress | suppress | hindered | reduced | reduced | dephosphorylation | decrease | suppressed | suppressed dephosphorylation | control an expression level of Cyclin D1; also recorded: suppressed | suppress; also recorded: hindered | suppressed in phosphorylation | suppressed | bound specifically
2 | GTGKA (CAGE-derived peptide) [GTGKT peptide in which the 273rd Thr residue is substituted with Ala] | induced cell apoptosis |  |  | control an expression level of Cyclin D1 | suppressed |  |  |  |  |  |  | control an expression level of Cyclin D1 | suppress |  |  | 
